The Human Domainome abundance scans (Beltran et al. 2025)
± gives the uncertainty stated by the source.

B1: Max-interacting protein 1, residues 70 to 120; numbered along this chain, P50539 (parent)
chain: STHNELEKNRRAHLRLCLERLKVLIPLGPDCTRHTTLGLLNKAKAHIKKLE

Variants of: B1
Assay: abundance fitness (aPCA) (normalised: wild type 0, dead -1); higher = more abundant; growth selection in yeast, the domain comes from the species named
Conditions: Homo sapiens

Variant	abundance fitness
STHNELEKNRRAHLRLCLNRLKVLIPLGPDCTRHTTLGLLNKAKAHIKKLE [E19N]	0.202 ± 0.16
STHNELEKNRRAHLRLCLLRLKVLIPLGPDCTRHTTLGLLNKAKAHIKKLE [E19L]	-0.791 ± 0.11
STHNELEKNRCAHLRLCLERLKVLIPLGPDCTRHTTLGLLNKAKAHIKKLE [R11C]	-0.256 ± 0.23
STHNELEKNRFAHLRLCLERLKVLIPLGPDCTRHTTLGLLNKAKAHIKKLE [R11F]	-0.396 ± 0.15
SYHNELEKNRRAHLRLCLERLKVLIPLGPDCTRHTTLGLLNKAKAHIKKLE [T2Y]	-0.088 ± 0.095
SNHNELEKNRRAHLRLCLERLKVLIPLGPDCTRHTTLGLLNKAKAHIKKLE [T2N]	0.128 ± 0.075
STHNEQEKNRRAHLRLCLERLKVLIPLGPDCTRHTTLGLLNKAKAHIKKLE [L6Q]	0.18 ± 0.13
STHNEYEKNRRAHLRLCLERLKVLIPLGPDCTRHTTLGLLNKAKAHIKKLE [L6Y]	-0.277 ± 0.31
STHNEWEKNRRAHLRLCLERLKVLIPLGPDCTRHTTLGLLNKAKAHIKKLE [L6W]	-0.566 ± 0.096
STHNELEKNRRAHLRLCLERLKVLIPLGPDCTRHTTLGLLNKAKPHIKKLE [A45P]	-0.631 ± 0.14
STHNELEKNRRAHLRLCLERLKVLIPLGPDCTRHTTLGLLNKAKLHIKKLE [A45L]	-0.097 ± 0.093
STHNELEKNRRAHLRLCLERLKVLIPLGPDCTRHTTLGLLNKAKCHIKKLE [A45C]	-0.25 ± 0.17
STHNELEKNRRAHLRLCLERLKVLIPLGPDCTRHTTLGLLNKAKEHIKKLE [A45E]	-0.136 ± 0.12
STHNELEKNRRAHLRLCLERLKVLIPLGFDCTRHTTLGLLNKAKAHIKKLE [P29F]	0.413 ± 0.14
STHNYLEKNRRAHLRLCLERLKVLIPLGPDCTRHTTLGLLNKAKAHIKKLE [E5Y]	-0.069 ± 0.14
STHNILEKNRRAHLRLCLERLKVLIPLGPDCTRHTTLGLLNKAKAHIKKLE [E5I]	-0.185 ± 0.17
STHIELEKNRRAHLRLCLERLKVLIPLGPDCTRHTTLGLLNKAKAHIKKLE [N4I]	0.278 ± 0.21
STHNELEKNRRAHLRLCLERLKVLIPDGPDCTRHTTLGLLNKAKAHIKKLE [L27D]	-0.512 ± 0.22
STHNELEKNRRAHLRLCLERLKVLIPGGPDCTRHTTLGLLNKAKAHIKKLE [L27G]	0.18 ± 0.082
STHNELEKNRRAHLRLCLERLKVLIPLGPDCTRHTTLGLLNKAKAHIKKME [L50M]	-0.446 ± 0.17
STHNELEKNRRAHLRLCLERLKVLIPLGPVCTRHTTLGLLNKAKAHIKKLE [D30V]	0.223 ± 0.079
STHNELEKNRRAHLRLCLERLKVLIPLGPDCTRHGTLGLLNKAKAHIKKLE [T35G]	-0.031 ± 0.075
STHNELEKNRRAHLRLCLERLKVLIPLGPDCTRHTDLGLLNKAKAHIKKLE [T36D]	-0.705 ± 0.13
STHNELEKNRRAHLRLCLETLKVLIPLGPDCTRHTTLGLLNKAKAHIKKLE [R20T]	-0.377 ± 0.15
STHNELEKNRRAHCRLCLERLKVLIPLGPDCTRHTTLGLLNKAKAHIKKLE [L14C]	-0.315 ± 0.13
STHNELEKNRRAHNRLCLERLKVLIPLGPDCTRHTTLGLLNKAKAHIKKLE [L14N]	-0.735 ± 0.24

Variant	abundance fitness
STHNELEKNRRAHARLCLERLKVLIPLGPDCTRHTTLGLLNKAKAHIKKLE [L14A]	-0.197 ± 0.096
STHNELEKNRRAHHRLCLERLKVLIPLGPDCTRHTTLGLLNKAKAHIKKLE [L14H]	-0.143 ± 0.24
STHNELEKNRRAHPRLCLERLKVLIPLGPDCTRHTTLGLLNKAKAHIKKLE [L14P]	-0.064 ± 0.12
STHNELEKNRRAHLRFCLERLKVLIPLGPDCTRHTTLGLLNKAKAHIKKLE [L16F]	-0.207 ± 0.18
STHNELEKNRRAHLRYCLERLKVLIPLGPDCTRHTTLGLLNKAKAHIKKLE [L16Y]	-0.241 ± 0.17
STHNELEKNRRAHLRDCLERLKVLIPLGPDCTRHTTLGLLNKAKAHIKKLE [L16D]	-0.037 ± 0.25
STHNELEKNRRAHLRGCLERLKVLIPLGPDCTRHTTLGLLNKAKAHIKKLE [L16G]	0.274 ± 0.087
STHNELEKNRRAHLRLCLERLKVLIPLGPDCTRHTTLGLLNKAKAHIKYLE [K49Y]	-0.746 ± 0.24
STHNELEKNRRAHLRLCLERLKVLIPLGPDCTRHTTLGLLNKAKAHIKNLE [K49N]	-0.594 ± 0.25
STHNELEKNRRAHLRLCLERLKVLIPLGPDCTRHTTLGLLNKAKAHIKILE [K49I]	-0.81 ± 0.24
STHNELEKNRRAHLRLCLERLKVLIPLGPDCTRHTTLGLLNKAKAHIKPLE [K49P]	-0.638 ± 0.11
STHNELEKNRRAHLRLCLERLKVLIPLGPDCTRHTTLGLLNKAKAHIKVLE [K49V]	-0.618 ± 0.11
STHNELEKNRRAHLRLCLERLKVLIPLGPDCTRHTTLGLLNKAKAHIKTLE [K49T]	-0.701 ± 0.15
STHNELEKNRRCHLRLCLERLKVLIPLGPDCTRHTTLGLLNKAKAHIKKLE [A12C]	-0.426 ± 0.13
STHNELEKNRRVHLRLCLERLKVLIPLGPDCTRHTTLGLLNKAKAHIKKLE [A12V]	-0.438 ± 0.087
STHNELEKNRRAHLRLCLERLKVLIPLGPDCTRSTTLGLLNKAKAHIKKLE [H34S]	0.047 ± 0.086
STHNELEKNRRAHLRLCLERLKVLIPLGPDCTRPTTLGLLNKAKAHIKKLE [H34P]	-0.318 ± 0.15
STHNELEKNRRAHLRLCLERLKVLIPLGPDCTRGTTLGLLNKAKAHIKKLE [H34G]	0.114 ± 0.079
STHNELEKNRRAHLRLCLERLKVKIPLGPDCTRHTTLGLLNKAKAHIKKLE [L24K]	-0.294 ± 0.14
STHNELFKNRRAHLRLCLERLKVLIPLGPDCTRHTTLGLLNKAKAHIKKLE [E7F]	-0.273 ± 0.15
STHNELEKNRRAHLRLCLERLKVLIPLGPDCTRHTTLGLLNKAKAHIGKLE [K48G]	-0.479 ± 0.085
STHNELEKNRRAHLRLCLERLKVLIPLGPDCTRHTTLGLLNKAKAHIEKLE [K48E]	-0.762 ± 0.12
STHNELEKNRRAHLRLCLERLKVLIPLGPDCTRHTTLGLLNKAKAHIMKLE [K48M]	-0.65 ± 0.18
ETHNELEKNRRAHLRLCLERLKVLIPLGPDCTRHTTLGLLNKAKAHIKKLE [S1E]	-0.48 ± 0.49
FTHNELEKNRRAHLRLCLERLKVLIPLGPDCTRHTTLGLLNKAKAHIKKLE [S1F]	-0.095 ± 0.18
